We go through 2 substances from PMC4359373, “Mechanistic insight into the conserved allosteric regulation of periplasmic proteolysis by the signaling molecule cyclic-di-GMP” (eLife, 2014).

This test addresses L. pneumophila CdgS9 periplasmic output domain (CdgS9^Output, residues 22-152) (L. pneumophila). Briefly: […]; 25 mM Tris-HCl pH 7.4, 100 mM NaCl, 25°C; […].

Take “L. pneumophila CdgS9 periplasmic output domain (CdgS9^Output, residues 22-152) (domain or fragment)”: the stoichiometry N amounted to 2.

L. pneumophila LapG (enzyme) had a stoichiometry N (CdgS9^Output chains per LapG (2:1)) of 2.

One may read the stoichiometry N as a count of units in the complex or per binding partner.
